The record followed here is patent US20250295803A1, “5T4 ANTIBODY-DRUG CONJUGATES AND USES THEREOF” (EXELIXIS, INC., priority 2022, published 2025).

Data set [1] in a line: Standup monolayer adsorption chromatography (SMAC) developability. It counts as physicochemical. The settings on record: 1 mg/mL in Dulbecco's PBS pH 7.4. On the procedure:
Antibodies that were selected for binding to 5T4, such as those described in Examples 2 and 3, were tested by various methods to assess developability. For example, various chromatographic methods, including size exclusion chromatography (SEC), hydrophobic interaction chromatography (HIC), and standup monolayer adsorption chromatography (SMAC) were employed to assess factors, such as monomer percentage, solubility, and antibody aggregation or precipitation.
Standup monolayer adsorption chromatography (SMAC) analysis was performed using a 4.6 mm ID×300 mm Zenix SEC 300 column (Sepax Technologies, PN 213300P-4630) with a 4.6 mm×50 mm guard column (PN 213300P-4605) on an Agilent 1100 HPLC. Antibodies were normalized to 1 mg/mL concentration in Dulbecco's PBS (pH 7.4, without Ca^2+/Mg^2+) and clarified via centrifugation to pellet particulates while still retaining soluble aggregates. The mobile phase buffer was Dulbecco's PBS (pH 7.4, without Ca^2+/Mg^2+) at 2× concentration (diluted from 10× stock concentration). For each sample, 10 μL was loaded and isocratically eluted at 0.4 mL/minute over 32 minutes at ambient temperature. Absorbance was monitored at 280 nm. Sample retention time was calculated and compared to a set of standard controls to identify antibodies with increased retention time (increased propensity to form aggregates and/or increased hydrophobic/electrostatic interactions) as the column stationary phase along with mobile phase selection promotes secondary interactions in addition to molecular sizing. Data analysis was performed using Agilent ChemStation B.04.03 SP1.

For data set [2], the target named is T1, human 5T4 produced internally (Lot 20-019-62) (human, UniProt Q13641 32-355).
T1 construct: 'also produced separately'; also called Internal (Lot 20-019-62)
T1 sequence: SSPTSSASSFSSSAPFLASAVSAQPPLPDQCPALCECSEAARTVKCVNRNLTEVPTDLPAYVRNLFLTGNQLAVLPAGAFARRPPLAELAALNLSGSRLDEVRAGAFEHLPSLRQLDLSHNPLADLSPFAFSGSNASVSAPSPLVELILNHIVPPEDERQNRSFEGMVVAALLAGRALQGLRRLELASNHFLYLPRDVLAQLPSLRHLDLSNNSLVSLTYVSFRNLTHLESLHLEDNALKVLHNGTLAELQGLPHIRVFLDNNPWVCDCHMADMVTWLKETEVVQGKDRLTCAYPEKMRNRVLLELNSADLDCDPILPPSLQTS
The experiment in a line: Octet, antibody on AHC sensors, human 5T4 in solution (monovalent); Internal Lot 20-019-62. As to the method:
Monovalent binding assays were employed to determine the relative affinity of each 5T4 binder obtained by the phage display in Example 1 to human 5T4. Human 5T4 was purchased from Acro Biosystems (Acro Catalog No. TPGH52E) and also produced separately. The monovalent interaction of binders to human 5T4 was monitored using an Octet (Pall ForteBio) instrument. For these assays, 36 nM antibody was immobilized on anti-human Fc (AHC) sensors in 1× kinetic buffer (ForteBio). The sensors were then dipped in wells containing a 3× serial dilution of human 5T4 ranging from 1 μM to 1.37 nM. The association was allowed to reach equilibrium. Sensors were then moved to wells containing only 1× kinetic buffer and allowed to dissociate to equilibrium. Association and dissociation rates were measured and from these, monovalent KDS were calculated using the onboard analysis software (ForteBio).
In general terms: In BLI a coated tip is dipped into the sample, and binding shifts an interference pattern.

For data set [3], the target named is T2, unconjugated human TPBG/5T4 protein with a c-terminal polyhistidine and Avi tag (AcroBiosystems Cat. No. … (human, UniProt Q13641 32-355)).
T2 construct: Bought protein; also called Acro TPGH52E5; Acro Catalog No. TPGH52E; not shown: C-terminal polyhistidine and Avi tag
T2 sequence: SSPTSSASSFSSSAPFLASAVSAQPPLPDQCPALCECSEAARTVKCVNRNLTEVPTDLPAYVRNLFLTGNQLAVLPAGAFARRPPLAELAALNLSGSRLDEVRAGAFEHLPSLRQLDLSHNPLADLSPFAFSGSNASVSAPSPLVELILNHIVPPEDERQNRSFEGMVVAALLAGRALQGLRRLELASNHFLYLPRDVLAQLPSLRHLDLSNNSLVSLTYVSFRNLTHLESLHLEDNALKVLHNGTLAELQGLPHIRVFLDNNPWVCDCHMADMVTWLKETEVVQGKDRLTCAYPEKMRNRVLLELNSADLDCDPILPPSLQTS
The experiment in a line: ELISA on coated human 5T4 His-Avi (Acro TPG-H52E5); antibody condition: pH 8.5 Day 4. On the procedure:
(§1) A. Normal Binding Unconjugated antibodies were tested for their ability to bind to human 5T4 (hu5T4) using ELISA. On Day 1, unconjugated human TPBG/5T4 protein with a c-terminal polyhistidine and Avi (AVITAG™) tag (AcroBiosystems (Newark, DE, USA), Cat. No. TPG-H52E5) was diluted 2 μg/mL in PBS, mixed thoroughly, plated 100 μL per well in a 96-well plate (Nunc MAXISORP®) and incubated overnight at 4° C.
(In general: ELISA stands for enzyme-linked immunosorbent assay.)

For data set [4], the target named is T2, unconjugated human TPBG/5T4 protein …. The experiment in a line: ELISA on coated human 5T4 His-Avi (Acro TPG-H52E5); antibody condition: pH 5.5 Day 4. As to the method:
as §1

The target in data set [5] is T3, cynomolgus 5T4 on cells (HEK-cyno-5T4, transfected HEK293 and CHO cells) (cynomolgus monkey, UniProt Q4R8Y9 35-420).
T3 construct: also called HEK-cyno-5T4 cells
T3 sequence: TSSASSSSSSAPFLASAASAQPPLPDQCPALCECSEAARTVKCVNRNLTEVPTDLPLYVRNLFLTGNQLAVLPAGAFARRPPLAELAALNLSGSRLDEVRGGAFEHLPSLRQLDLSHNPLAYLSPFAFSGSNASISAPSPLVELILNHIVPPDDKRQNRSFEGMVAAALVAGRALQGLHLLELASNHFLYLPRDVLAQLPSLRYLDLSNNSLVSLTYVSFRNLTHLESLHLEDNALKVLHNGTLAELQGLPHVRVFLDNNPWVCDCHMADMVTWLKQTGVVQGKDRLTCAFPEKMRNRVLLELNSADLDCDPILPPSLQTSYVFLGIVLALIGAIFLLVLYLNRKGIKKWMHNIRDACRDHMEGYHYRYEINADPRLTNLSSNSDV
The data set can be described thus: flow cytometry on HEK-cyno-5T4 cells. A general note: A flow cytometer gives signals particle by particle.

B1: mAbA4: 5T4 antibody comprising VH of SEQ ID NO:25 and VL of SEQ ID NO:26 (antibody, V domains shown)
VH: EVQLVESGGGLVQPGGSLRLSCAASGFTFSRYYIHWVRQAPGKGLEWVAFISPGGSYTYYADSVKGRFTISADTSKNTAYLQMNSLRAEDTAVYYCAREYYSMGVLDYWGQGTLVTVSS
VL: DIQMTQSPSSLSASVGDRVTITCRASQSVSSAVAWYQQKPGKAPKLLIYSASSLYSGVPSRFSGSRSGTDFTLTISSLQPEDFATYYCQQAYESPYTFGQGTKVEIK
modifications: Antibody mAbA4 VH Sequence; Antibody mAbA4 VL Sequence
As for B1, the “developability based on SMAC analysis” value in data set [1] is reported as “strong developability”.

B2: mAbA15: 5T4 antibody comprising VH of SEQ ID NO:44 and VL of SEQ ID NO:45 (antibody, V domains shown)
VH: EVQLVESGGGLVQPGGSLRLSCAASGFTFSSYYIHWVRQAPGKGLEWVAYITSTGSYTEYADSVKGRFTISADTSKNTAYLQMNSLRAEDTAVYYCARYDRSTRYSGLDYWGQGTLVTVSS
VL: DIQMTQSPSSLSASVGDRVTITCRASQSVSSAVAWYQQKPGKAPKLLIYSASSLYSGVPSRFSGSRSGTDFTLTISSLQPEDFATYYCQQAYATPVTFGQGTKVEIK
modifications: Antibody mAbA15 VH Sequence; Antibody mAbA15 VL Sequence
In the case of B2, the “developability based on SMAC analysis” value in data set [1] was “strong developability”.

B3: mAbA17 (antibody, V domains shown)
VH: EVQLVESGGGLVQPGGSLRLSCAASGFTFSRYWIHWVRQAPGKGLEWVAAIFPYSGSTLYADSVKGRFTISADTSKNTAYLQMNSLRAEDTAVYYCARSPSRSILPSGLDYWGQGTLVTVSS
VL: DIQMTQSPSSLSASVGDRVTITCRASQSVSSAVAWYQQKPGKAPKLLIYSASSLYSGVPSRFSGSRSGTDFTLTISSLQPEDFATYYCQQGDGSPYTFGQGTKVEIKR
notes: also called Antibody mAbA17
Turning to B3, the Kd – broadly, the constant that tells how readily two partners part at equilibrium – in data set [2] turned out to be 9.34 nM. Moreover, the EC50 (in general, the concentration giving half of the maximal effect) in data set [3] was found to be 0.15 nM; in data set [4] it was 0.157 nM.

B4: mAbA4 (antibody, V domains shown)
VH: EVQLVESGGGLVQPGGSLRLSCAASGFTFSRYYIHWVRQAPGKGLEWVAFISPGGSYTYYADSVKGRFTISADTSKNTAYLQMNSLRAEDTAVYYCAREYYSMGVLDYWGQGTLVTVSS
VL: DIQMTQSPSSLSASVGDRVTITCRASQSVSSAVAWYQQKPGKAPKLLIYSASSLYSGVPSRFSGSRSGTDFTLTISSLQPEDFATYYCQQAYESPYTFGQGTKVEIKR
notes: also called Antibody mAbA4
B4: the Kd in data set [2] came to 83 nM. For the same molecule, the binding result in data set [5] is on record as “binds”. For the same molecule, the EC50 in data set [3] turned out to be 0.114 nM; in data set [4], 0.125 nM.

B5: mAbA15 (antibody, V domains shown)
VH: EVQLVESGGGLVQPGGSLRLSCAASGFTFSSYYIHWVRQAPGKGLEWVAYITSTGSYTEYADSVKGRFTISADTSKNTAYLQMNSLRAEDTAVYYCARYDRSTRYSGLDYWGQGTLVTVSS
VL: DIQMTQSPSSLSASVGDRVTITCRASQSVSSAVAWYQQKPGKAPKLLIYSASSLYSGVPSRFSGSRSGTDFTLTISSLQPEDFATYYCQQAYATPVTFGQGTKVEIKR
notes: also called Antibody mAbA15
As to B5, the Kd in data set [2] was 10.4 nM. Also, the binding result in data set [5] was “binds”. The EC50 in data set [3] was found to be 0.133 nM; in data set [4], 0.123 nM.

B6: mAbA17: 5T4 antibody comprising VH of SEQ ID NO:62 and VL of SEQ ID NO:63 (antibody, V domains shown)
VH: EVQLVESGGGLVQPGGSLRLSCAASGFTFSRYWIHWVRQAPGKGLEWVAAIFPYSGSTLYADSVKGRFTISADTSKNTAYLQMNSLRAEDTAVYYCARSPSRSILPSGLDYWGQGTLVTVSS
VL: DIQMTQSPSSLSASVGDRVTITCRASQSVSSAVAWYQQKPGKAPKLLIYSASSLYSGVPSRFSGSRSGTDFTLTISSLQPEDFATYYCQQGDGSPYTFGQGTKVEIK
modifications: Antibody mAbA17 VH Sequence; Antibody mAbA17 VL Sequence
Turning to B6, the “developability based on SMAC analysis” value in data set [1] is “strong developability”.
